{
  "source": "patent EP2348038A1",
  "about": "“Method for determining the activity of transglutaminase factor XIIIa” (PHILIPPS-UNIVERSITÄT MARBURG, priority 2010, dated 2011)",
  "assay_type_in_all_cases": "biochemical",
  "key": {"FXIIIa": {"tested_on": "FXIIIa", "assay": "Initial cleavage tests of Glu(pNA)/Glu(AMC) derivatives with FXIIIa (background section)", "conditions": "release of pNA or AMC; no conditions given", "from_the_text": "Nach derzeitigem Wissen existieren neben FXIII bzw. FXllla im Körper derzeit noch 8 weitere Transglutaminasen, dazu zählen TG1-TG7 sowie das Protein epb42, dass allerdings katalytisch unwirksam ist (Wodzinska, Mini Rev. in Med. Chem. 5 (2005) 279-292). Als erste Transglutaminase wurde das inzwischen als TG2 bezeichnete Enzym entdeckt. Dessen Aktivität lässt sich sehr einfach durch UV/VIS-spektroskopische oder fluorimetrische Messungen unter Verwendung simpler Aminosäurederiate nachweisen, beispielsweise durch Abspaltung von p-Nitroanlin aus H-Glu(pNA)-OH oder durch Abspaltung von Aminomethylcoumarin aus H-Glu(AMC)-OH (Smith et al., Anal. Biochem. 100 (1979) 136-139). […] Bisher wurden auch noch keine Peptidderivate beschrieben, die einen Glu(pNA) oder Glu(AMC)-Rest besitzen und gleichzeitig mit ausreichender Effektivität von FXllla unter Freisetzung von pNA oder AMC umgesetzt werden."}, "Faktor XIIIa": {"target": "T1, Faktor XIIIa (Homo sapiens, UniProt P00488)", "T1 construct": "Aktivierung des Zymogens FXIII zu Faktor XIIIa; purchased Aventis Behring Fibrogammin HS", "T1 sequence (P00488 39-732 limits assumed)": "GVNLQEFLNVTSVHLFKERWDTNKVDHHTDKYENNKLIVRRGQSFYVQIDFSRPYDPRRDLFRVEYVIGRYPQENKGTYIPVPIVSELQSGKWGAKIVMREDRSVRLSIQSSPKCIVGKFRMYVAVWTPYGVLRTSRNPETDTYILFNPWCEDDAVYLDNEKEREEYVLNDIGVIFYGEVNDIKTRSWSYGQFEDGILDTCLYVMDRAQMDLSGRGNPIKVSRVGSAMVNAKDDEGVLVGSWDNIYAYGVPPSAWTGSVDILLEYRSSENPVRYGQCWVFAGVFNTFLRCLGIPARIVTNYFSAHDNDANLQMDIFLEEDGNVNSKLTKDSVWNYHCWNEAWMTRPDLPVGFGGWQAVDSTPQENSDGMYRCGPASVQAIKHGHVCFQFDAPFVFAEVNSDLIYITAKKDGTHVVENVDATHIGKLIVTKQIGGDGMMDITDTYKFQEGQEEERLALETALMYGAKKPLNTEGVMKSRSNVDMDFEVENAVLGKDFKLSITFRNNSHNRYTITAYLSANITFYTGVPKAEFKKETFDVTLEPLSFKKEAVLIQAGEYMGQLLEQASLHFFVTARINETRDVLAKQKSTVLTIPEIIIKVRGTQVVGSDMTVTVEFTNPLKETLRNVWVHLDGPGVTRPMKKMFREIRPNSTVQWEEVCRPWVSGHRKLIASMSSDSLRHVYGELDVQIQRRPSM", "assay": "Cleavage of AMC substrates by activated factor XIIIa, fluorescence plate reader (Michaelis-Menten kinetics)", "conditions": "λEX = 380 nm, λEm = 460 nm, room temperature, enzyme ca. 0,893 Einheiten/ml", "procedure": "(§1) Die Aliquotierung des Zymogens Faktor XIII und Aktivierung des Zymogens FXIII zu Faktor XIIIa erfolgten analog der in Beispiel 3 beschriebenen Prozedur.\n(§2) Sämtliche Lösungen wurden bei Raumtemperatur aufbewahrt. Die Bestimmung der Spaltung der AMC-Substrate durch FXllla wurde mit einem Fluoreszenz-Plattenreader Safire^2 der Firma Tecan (λEX = 380 nm, λEm = 460 nm) bei Raumtemperatur durchgeführt. • 100 µl TBS-Puffer (siehe oben, der Puffer kann gegebenenfalls auch eine Aminkomponente enthalten, beispielsweise H-Gly-Ethylester oder H-Gly-Gly-Ethylester oder ein anderes Amin) • 50 µl Substratlösung • 25 µl Enzymlösung (im Messansatz ca. 0,893 Einheiten/ml)\n(§3) Die Michaelis-Menten-Auftragung für die AMC-enthaltenden Substrate ist in Fig. 3 gezeigt."}, "[1]": {"substrate": "CC[C@H](C)[C@H](NC(=O)[C@@H](NC(=O)[C@H](CCCCN)NC(=O)[C@@H](NC(=O)[C@H](CCC(=O)Nc1ccc([N+](=O)[O-])cc1)NC(=O)[C@@H](N)Cc1ccc(O)cc1)C(C)C)C(C)C)C(=O)NCC(N)=O", "assay": "Cleavage of pNA substrates by activated factor XIIIa, absorbance at 405 nm (Michaelis-Menten kinetics and pre-test)", "conditions": "other: pNA substrates, 37 °C, enzyme ca. 1,25 Einheiten/ml, varied substrate concentration, pH 7.5", "procedure": "(§4) 250 Einheiten lyophilisiertes Fibrogammin HS (Aventis Behring) wurden in 4 ml Wasser gelöst, als 100 µl Portionen aliquotiert und bei -80 °C gelagert. 100 µl dieser Lösung enthalten 6,25 Einheiten FXIII.\n(§5) 100 µl des aliqotierten Fibrogammins (entspricht 6,25 Einheiten) wurden mit 500 µl TBS-Puffer (50 mM Tris-HCl, pH 7,5 in 0,9% (w/v) NaCl), 360 µl einer 0.9 % NaCl-Lösung, 10 µl einer 1 M CaCl2-Lösung und 20 µl einer Thrombinlösung (Rinderthrombin: 14,2 U in 20 µl) versetzt. Der Ansatz wurde 20 min bei 37 °C inkubiert, danach wurden 10 µl einer Lösung mit rekombinantem Hirudin zugesetzt (r-Hirudin: HBW 023 mit 13442 IU mg^-1, Stammlösung des r-Hirudin = 1 mg/ml). Dieser Aktivierungsansatz besitzt ein Gesamtvolumen von 1 ml, der aktivierte Faktor Xllla wurde bei 37 °C aufbewahrt und für die folgenden kinetischen Messungen verwendet.\n(§6) Die Messungen wurden bei 405 nm und 37 °C mit einem Microplate Reader der Firma Labsystems (iEMS Reader MF) mit folgendem Messansatz durchgeführt: • 150 µl TBS-Puffer (siehe oben, der Puffer kann gegebenenfalls auch eine Aminkomponente enthalten, beispielsweise H-Gly-Ethylester oder H-Gly-Gly-Ethylester oder ein anderes Amin, falls vorhanden ist die finale Konzentration des Amins im Messansatz 2,5 mM oder höher) • 50 µl Substratlösung • 50 µl Enzymlösung (im Messansatz ca. 1,25 Einheiten/ml)\n(§7) Sämtliche Lösungen wurden vor Benutzung bei 37 °C aufbewahrt, vor Zugabe der FXllla-Lösung wurde die Mikroreadermessplatte nochmals 5 min bei 37 °C im Messgerät temperiert. Nach Zugabe der FXllla-Lösung wurde die Substratspaltung gestartet und die Änderung der Absorption bei 405 nm gemessen. Für einen Vortest wurde eine konstante Substratkonzentration verwendet. […] Wir haben vermutet, dass vor allem die Aminosäuren N- und C-terminal des Glu(pNA)-Restes wichtig für die Substraterkennung sind, deshalb wurde das N-terminale Glycin und das an dritter Position befindliche Serin innerhalb der Berichromsequenz durch andere Aminosäurereste ersetzt. Durch den Vortest wurde festgestellt, dass einige dieser Substrate deutlich schneller als die Derivate S1 und S2 gespalten werden. Für ausgewählte Substrate wurden die Substratkonzentrationen im Messansatz variiert und die bestimmten Umsatzgeschwindigkeiten als Funktion der Substratkonzentration entsprechend der Michaelis-Menten-Gleichung v=Vmax·[S]/(Km+[S]) aufgetragen und somit die kinetischen Konstanten Km und Vmax bestimmt, wobei Vmax in der Einheit Absorptionsänderung bei 405 nm/s erhalten wurde. Dies ist in Fig. 1 und Fig. 2 gezeigt."}, "[2]": {"substrate": "CC[C@H](C)[C@H](NC(=O)[C@@H](NC(=O)[C@H](CCCCN)NC(=O)[C@@H](NC(=O)[C@H](CCC(=O)Nc1ccc([N+](=O)[O-])cc1)NC(=O)[C@@H](N)Cc1ccc(O)cc1)C(C)C)C(C)C)C(N)=O", "assay": "Cleavage of pNA substrates by activated factor XIIIa, absorbance at 405 nm (Michaelis-Menten kinetics and pre-test)", "conditions": "other: pNA substrates, 37 °C, enzyme ca. 1,25 Einheiten/ml, varied substrate concentration, pH 7.5", "procedure": "as §4, §5, §6, §7"}, "[3]": {"substrate": "CC[C@H](C)[C@H](NC(=O)[C@@H](NC(=O)[C@H](CCCNC(=N)N)NC(=O)[C@@H](NC(=O)[C@H](CCC(=O)Nc1ccc([N+](=O)[O-])cc1)NC(=O)[C@@H](N)Cc1ccc(O)cc1)C(C)C)C(C)C)C(=O)NCC(N)=O", "assay": "Cleavage of pNA substrates by activated factor XIIIa, absorbance at 405 nm (Michaelis-Menten kinetics and pre-test)", "conditions": "other: pNA substrates, 37 °C, enzyme ca. 1,25 Einheiten/ml, varied substrate concentration, pH 7.5", "procedure": "as §4, §5, §6, §7"}, "[4]": {"substrate": "CC[C@H](C)[C@H](NC(=O)[C@H](CCC(=O)Nc1ccc([N+](=O)[O-])cc1)NC(=O)[C@@H](N)Cc1ccc(O)cc1)C(=O)N[C@@H](CCCCN)C(=O)N[C@H](C(=O)N[C@H](C(=O)NCC(N)=O)[C@@H](C)CC)C(C)C", "assay": "Cleavage of pNA substrates by activated factor XIIIa, absorbance at 405 nm (Michaelis-Menten kinetics and pre-test)", "conditions": "other: pNA substrates, 37 °C, enzyme ca. 1,25 Einheiten/ml, varied substrate concentration, pH 7.5", "procedure": "as §4, §5, §6, §7"}, "[5]": {"substrate": "CC[C@H](C)[C@H](NC(=O)[C@@H](NC(=O)[C@H](CCCCN)NC(=O)[C@@H](NC(=O)[C@H](CCC(=O)Nc1ccc([N+](=O)[O-])cc1)NC(=O)[C@@H](N)CCCCN)C(C)C)C(C)C)C(=O)NCC(N)=O", "assay": "Cleavage of AMC substrates by activated factor XIIIa, fluorescence plate reader (Michaelis-Menten kinetics)", "conditions": "other: AMC substrates; λEX = 380 nm, λEm = 460 nm, room temperature; enzyme ca. 0,893 Einheiten/ml", "procedure": "as §1, §2, §3"}, "[6]": {"substrate": "CC[C@H](C)[C@H](NC(=O)[C@@H](NC(=O)[C@H](CCCCN)NC(=O)[C@H](CCCCNC(=O)OCc1ccccc1)NC(=O)[C@H](CCC(=O)Nc1ccc([N+](=O)[O-])cc1)NC(=O)[C@@H](N)Cc1c[nH]cn1)C(C)C)C(=O)NCC(N)=O", "assay": "Cleavage of AMC substrates by activated factor XIIIa, fluorescence plate reader (Michaelis-Menten kinetics)", "conditions": "other: AMC substrates; λEX = 380 nm, λEm = 460 nm, room temperature; enzyme ca. 0,893 Einheiten/ml", "procedure": "as §1, §2, §3"}},
  "note": "Peptide text beside a SMILES is read from it. * marks the point of attachment. pNA = O=[N+]([O-])c1ccc(N*)cc1; Cbz = O=C(OCc1ccccc1)*",
  "data": [
    {"molecule": "Cc1cc(=O)oc2cc(NC(=O)CC[C@H](N)C(=O)O)ccc12", "note": "[H-Glu(AMC)-OH]", "values": [
      {"measurement": "Spaltung durch FXIIIa", "setting": "FXIIIa", "result": "nicht gespalten"}
    ]},
    {"molecule": "CC[C@H](C)[C@H](NC(=O)[C@@H](NC(=O)[C@H](CCCCN)NC(=O)[C@@H](NC(=O)[C@H](CCC(=O)Nc1ccc([N+](=O)[O-])cc1)NC(=O)[C@@H](N)CCCCN)C(C)C)C(C)C)C(=O)NCC(N)=O", "note": "[Substrat S18, H-Lys-Glu(pNA)-Val-Lys-Val-Ile-Gly-NH2] (H-KE(pNA)VKVIG-NH2)", "values": [
      {"measurement": "Vmax", "setting": "Faktor XIIIa", "result": "9,61 dRFU/s"}
    ]},
    {"molecule": "N[C@@H](CCC(=O)Nc1ccc([N+](=O)[O-])cc1)C(=O)O", "note": "[H-Glu(pNA)-OH]", "values": [
      {"measurement": "Spaltung durch FXIIIa", "setting": "FXIIIa", "result": "nicht gespalten"}
    ]},
    {"molecule": "CC[C@H](C)[C@H](NC(=O)[C@@H](NC(=O)[C@H](CCCCN)NC(=O)[C@H](CCCCNC(=O)OCc1ccccc1)NC(=O)[C@H](CCC(=O)Nc1ccc([N+](=O)[O-])cc1)NC(=O)[C@@H](N)Cc1c[nH]cn1)C(C)C)C(=O)NCC(N)=O", "note": "[Substrat S19, H-His-Glu(pNA)-Lys(Z)-Lys-Val-Ile-Gly-NH2] (H-HE(pNA)K(Cbz)KVIG-NH2)", "values": [
      {"measurement": "Vmax", "setting": "Faktor XIIIa", "result": "11,99 dRFU/s"}
    ]},
    {"molecule": "Faktor XIIIa (Homo sapiens) (protein, Aktivierung des Zymogens FXIII zu Faktor XIIIa; purchased Aventis Behring Fibrogammin HS) GVNLQEFLNVTSVHLFKERWDTNKVDHHTDKYENNKLIVRRGQSFYVQIDFSRPYDPRRDLFRVEYVIGRYPQENKGTYIPVPIVSELQSGKWGAKIVMREDRSVRLSIQSSPKCIVGKFRMYVAVWTPYGVLRTSRNPETDTYILFNPWCEDDAVYLDNEKEREEYVLNDIGVIFYGEVNDIKTRSWSYGQFEDGILDTCLYVMDRAQMDLSGRGNPIKVSRVGSAMVNAKDDEGVLVGSWDNIYAYGVPPSAWTGSVDILLEYRSSENPVRYGQCWVFAGVFNTFLRCLGIPARIVTNYFSAHDNDANLQMDIFLEEDGNVNSKLTKDSVWNYHCWNEAWMTRPDLPVGFGGWQAVDSTPQENSDGMYRCGPASVQAIKHGHVCFQFDAPFVFAEVNSDLIYITAKKDGTHVVENVDATHIGKLIVTKQIGGDGMMDITDTYKFQEGQEEERLALETALMYGAKKPLNTEGVMKSRSNVDMDFEVENAVLGKDFKLSITFRNNSHNRYTITAYLSANITFYTGVPKAEFKKETFDVTLEPLSFKKEAVLIQAGEYMGQLLEQASLHFFVTARINETRDVLAKQKSTVLTIPEIIIKVRGTQVVGSDMTVTVEFTNPLKETLRNVWVHLDGPGVTRPMKKMFREIRPNSTVQWEEVCRPWVSGHRKLIASMSSDSLRHVYGELDVQIQRRPSM", "values": [
      {"measurement": "Km", "setting": "[1]", "result": 40, "unit": "µM"},
      {"measurement": "Km", "setting": "[2]", "result": 86, "unit": "µM"},
      {"measurement": "Km", "setting": "[3]", "result": 49, "unit": "µM"},
      {"measurement": "Km", "setting": "[4]", "result": 78, "unit": "µM"},
      {"measurement": "Km", "setting": "[5]", "result": 30, "unit": "µM"},
      {"measurement": "Km", "setting": "[6]", "result": 41, "unit": "µM"}
    ]}
  ]
}
